The source of these data is paper PMC10099132, “Sequence and Structural Motifs Controlling the Broad Substrate Specificity of the Mycobacterial Hormone-Sensitive Lipase LipN” (ACS Omega, 2023).

Common to all, as to assay: purified protein, by the assay type
Holding throughout (parameters): p-nitrophenyl ester hydrolysis, absorbance at 412 nm, Michaelis-Menten fit

Substrate in data set [1]: CC(=O)Oc1ccc([N+](=O)[O-])cc1
The source says: (§1) (A) Classic p-nitrophenyl ester substrates were used as conformation for fluorogenic substrate measurements (Figure 1). (B) Catalytic efficiency comparison of MmLipN against p-nitrophenyl substrates. Catalytic efficiency values (kcat/Km) are given ± SD. (C, D) Kinetic activity of MmLipN against (C) short alkyl ester substrates: p-nitrophenyl acetate (C2) and p-nitrophenyl butyrate (C4) and (D) longer alkyl ester substrates: p-nitrophenyl valerate ([…]), p-nitrophenyl octonoate (C8), and p-nitrophenyl myristate (C14). Data points were fitted to the Michaelis–Menten equation and are shown ± SD.

Substrate in data set [2]: CCCCC(=O)Oc1ccc([N+](=O)[O-])cc1
Source text: as §1

Substrate in data set [3]: CCCCCCCC(=O)Oc1ccc([N+](=O)[O-])cc1
Source text: as §1

Substrate in data set [4]: CCCCCCCCCCCCCC(=O)Oc1ccc([N+](=O)[O-])cc1
Source text: as §1

B1: MmLipN (LipN from M. marinum) (Mycobacterium marinum M) (protein)
chain: MTNSLPGETDLHPETVHATMSWLSRVQNTVTVVGAKVIPWVPDVAKRLITRGRSVIIDGNTLDPALQLMLSGMRVVGLDGLVIDDDLAASRAHMREAMLGFPGPQIHVDVEELTLPGPAGDISARHYRPPGDAAAPLLVFYHGGGWALGDLDTHDAVCRLTCRDAGIHVLAIDYRLSPEDRAPAAIDDAFAAFEWAHAHAAELGALPGRVAVGGDSAGGNLAAVVSQLARDSGGPAPIFQWLIYPRTDFAGRTRSASLFARGFLLTKRDIDWFHSQYLKGSGIEPTDPRVSPLRAESLAGLAPALIAVAGFDPLRDEGENYATALRAAGTPVDLRAMGSLTHGFLNLFPLGGGCAAATSELISALRAHLTRV
notes: E. coli LOBSTR (DE3); Ni-NTA
B1: the Km (as a rule, the concentration of substrate that gives half-maximal velocity) turned out to be 2400 ± 1200 µM in data set [1], 250 ± 70 µM in data set [2], 410 ± 330 µM in data set [3] and 120 ± 50 µM in data set [4]. Besides, the kcat (in general, the number of substrate molecules converted per active site and unit of time at saturation) in data set [1] worked out at 94 ± 8 s⁻¹; in data set [2], 15 ± 1 s⁻¹; in data set [3], 1.1 ± 0.2 s⁻¹; in data set [4] it was 0.28 ± 0.02 s⁻¹. Besides, the catalytic efficiency (kcat/Km) – broadly, the second-order rate constant that governs catalysis at low substrate concentration – in data set [1] is 39000 ± 10000 M⁻¹ s⁻¹; in data set [2], 59000 ± 8000 M⁻¹ s⁻¹; in data set [3], 2700 ± 1100 M⁻¹ s⁻¹; in data set [4], 2300 ± 400 M⁻¹ s⁻¹.
